Measurements: the DeepSol protein solubility set

Assay: soluble on expression in E. coli; label from the status in PepcDB or PDB records

Sequence	soluble on expression in E. coli
MSWSLLSNIIKKFTLLHHFQPIGYIYKYIHICTLNHSLGSCVLQANYSIQNNLRSRTLFIQSEITYSHSLESTHFFGILIFFNIKFRVFNRINDPWTVLDNVPEVMFHDRFFINDFTFWVDVLQEAFRMRRWIFRFEQLVVNPSFSNSQWRIIF	soluble
GMTLTRDSLLTLEAYAKVRRQEHARVIAHKKRRAVSIGNHLRLLFEDETTIRYQIHEMLHIEKIFDEDGIQAELDAYLPLVPDGSNLKATLQIEYENETQRRAALARLVGIEDRVFLRVDDEAPVYAIADEDLERDTAEKTSAVHFLRFELGDAMKAKLKAGAPLSIGCDHPHYPIQAARIDPDVAASLAGDLD	soluble
MVSTYDEIEIEDMTFEPENQMFTYPCPCGDRFQIYLDDMFEGEKVAVCPSCSLMIDVVFDKEDLAEYYEEAGIHPPEPIAAAA	soluble
QLIFDDCVFAFSGPVHEDAYDRSALETVVQDHGGLVLDTGLRPLFNDPFKSKQKKLRHLKPQKRSKSWNQAFVVSDTFSRKVKYLEALAFNIPCVHPQFIKQCLKMNRVVDFSPYLLASGYSHRLDCTLSQRIEPFDTTDSLYDRLLARKGPLFGKKILFIIPEAKSWQKKIENTEQGQKALAHVYHALALGADVEIRPNVAHLECDLILTMDGNIVDETNCPVVDPEWIVECLISQSDIST	soluble
MAHHHHHHMNHSPFLTALYTDVQSRLPLWTTRYVKPISNGTFAVSSTWTDDSGAQLQRLFIAVEASDTNCISEAVLAEWIAFVEAWQAAHKEDEVSCFVGFVDLAGTVSYYRCETAVAGAWRSKPDDHLTCR	not soluble
MGHHHHHHSHMPESYWEKVSGKNIPSSLDLYPIIHNYLQEDDEILDIGCGSGKISLELASLGYSVTGIDINSEAIRLAETAARSPGLNQKTGGKAEFKVENASSLSFHDSSFDFAVMQAFLTSVPDPKERSRIIKEVFRVLKPGAYLYLVEFGQNWHLKLYRKRYLHDFPITKEEGSFLARDPETGETEFIAHHFTEKELVFLLTDCRFEIDYFRVKELETRTGNKILGFVIIAQKL	not soluble
MAEPTAKAAPYENLMVPSPSMGRDIPVAFLAGGPHAVYLLDAFNAGPDVSNWVTAGNAMNTLAGKGISVVAPAGGAYSMYTNWEQDGSKQWDTFLSAELPDWLAANRGLAPGGHAAVGAAQGGYGAMALAAFHPDRFGFAGSMSGFLYPSNTTTNGAIAAGMQQFGGVDTNGMWGAPQLGRWKWHDPWVHASLLAQNNTRVWVWSPTNPGASDPAAMIGQAAEAMGNSRMFYNQYRSVGGHNGHFDFPASGDNGWGSWAPQLGAMSGDIVGAIRHHHHHH	soluble
MGSDKIHHHHHHVDDRPGTTGIRRTNPVMTDPKHRTEAPFDEQIIREYLIDNPDFFGRYPELLLAMRMSHTERGTVSLLERRQEMYRNRVAQLEEEITALMTQARRNEKIFRFNNDLQFKLLASAALGDVRQILSQALMSEFGFTHVRLITVHDVDSELSAIWSNRLARGHYFGRLTASESRRLFGSEVGSVALTRLSEHCGQVVFAIASQDPAHFHPEMDNLLLDQLRRILDHLLPRL	not soluble
MGSDKIHHHHHHMASPINESRIGYLYEAVRCGTVRAAADYLDVAPSAVSRQIALLEEELAIALVERNKRGVRPTEAGALLIEYFRQQRSHQGDLIAKLQEIRGLRRGTIAVVMGEGFASTMVSGPIKQYCEAYPEISITLDLCSTNEVMRRVSEDEAEIGLVFNPASDARIVSRVGSRQPMHAIVSPAFPLVGKVQSVTLRDMLPYPLALTHPEHGTRRLVDAAMLLEKVRLTPAITTNSATILKLFAKSNLGFTLLTPISIAAELAAGELVAIPVENRLLQSPEAHLVTRAGRQLSPAANRLLQRLTAQINQYAQYGSAS	not soluble
MNCRGHETRQRIVRDFEVQPKAHIKLLANQQKHSDAGATIEDEYYVFIAESKIDGKKEVIQCCMGAARDFLELINHKGLPLFNPLVGDSHVNNRQEYDNTGSGNL	not soluble
MEKHDICPSISEYSYHEILGFYINPVENHLASKNMLIDLDERSVEGLLIFIAECNLGIENRVMEHMNKGIRKCKDHRFT	not soluble
MIPKVIHYCWFGGNPLPDNLKKYIKTWREQCPDYEIIEWNEHNYDVSKNVFMREAYTKKNFAYVSDYARLDIIYTYGGFYLDTDVELLKSLDPLRIHECFLAREISCDVNTGLIIGAVKGHHFLKSNMSIYDKSDLTSLNKTCVEVTTNLLINRGLKNKNIIQKIDDITIYPRNYFNPKNLLTGKVDCLTSVTYSIHHYEGSWKSSSFISDSLKIRVRLIIDFLFGYGTYRMLLRFLKLKKLEHHHHHH	soluble
SNSANAADSGTLNYEVYKYNTNDTSIANDYFNKPAKYIKKNGKLYVQITVNHSHWITGMSIEGHKENIISKNTAKDERTSEFEVSKLNGKIDGKIDVYIDEKVNGKPFKYDHHYNITYKFNGPTDVAGANAP	not soluble
MERLSPVFATSKSSNMEVEHWMTSLKEVEKVLDSVEPKLTSSGTKWRVVAQHIKDICSDLNQIFNKEDPRYEVVQAGASAAHDFDVRYLDIHKVRTPHEPLEMRHSKGRKHGREIARLLEKIQKYRQEIEEIKKEYKETDKYRERYDHYKVKLDNLEKKNKDQERIERNQQKFKDAEAAYSSVCADLIQKMETVWKKHVSIFAEAASAVWSTQLQYAKALEAAANPIVPYLQQEEQEEEEEEEAASGTQGRVAEKAYHTNEEKVENSFQKNSAIPPSFRTASEQLTEQSKNINNAKNTSETSPAEDIEA	soluble
MITTFETILDKIKAHQTIIIHRHQNPDPDALGSQAGLKEIIAQNFPDKKVLMTGFDEPSLAWISQMDQVTDKDYKEALVIITDTANRPRIDDERYTLGKCLIKIDHHPNDDVYGDFYYVDTSASSASEIIADFAFSQNLTLSDKAAKLLYTGIVGDTGRFLYASTTSKTLSIASQLRHFEFDFAAISRQMDSFPLKIAKLQSYVFEHLTIDESGAAYVLVSQETLKHFDVTLAESSAIVCAPGKIDNVQAWAIFVELTDGNYRVRMRSKEKIINGIAKRHGGGGHPLASGANSANLEENQAIFRELIAVCQEILEHHHHHH	soluble
GPGSYDSNLYVASLPEWFTDADLHELFKRFGPIVSAKVMCHKGTHHCKGYGFVLFQRTDDAAVARSEMIGHVVGGNKIQVRRARSAASAPLTEAASAVSGTFTESSGSTRTSSSNVTPINYSVHVVPSQQPSFNPLYPATTALTPTYVLTNPSAPVQNATHTQPAMLVAVPNGRTMVQGAGDVMYMVLASSAQQMQSTSAIY	not soluble
MSGIIATYLIHDDSHNLEKKAEQIALGLTIGSWTHLPHLLQEQLKQHKGNVIHVEELAEHEHTNSYLRKKVKRGIIKIEYPLLNFSPDLPAILTTTFGKLSLDGEVKLIDLTFSDELKKHFPGPKFGIDGIRNLLQVHDRPLLMSIFKGMIGRNIGYLKTQLRDQAIGGVDIVKDDEILFENALTPLTKRIVSGKEVLQSVYETYGHKTLYAVNLTGRTFDLKENAKRAVQAGADILLFNVFAYGLDVLQSLAEDDEIPVPIMAHPAVSGAYSASKLYGVSSPLLLGKLLRYAGADFSLFPSPYGSVALEKEEALAISKYLTEDDASFKKSFSVPSAGIHPGFVPFIVRDFGKDVVINAGGGIHGHPNGAQGGGKAFRTAIDATLQNKPLHEVDDINLHSALQIWGNPSYEVKL	soluble
VGKTVKREYCHEENDEELRKAVHDACYDKSYAIAASGNRNKHERQDAFDAIRDEFKAQFSEEELEEKGALIDRYYHDVEKEAMRRCILDEGKRLDGRKTTEIRP	not soluble
MSLKDITLQVALPKFGYKENVKSFVLEVIAKDSSFWNFFSGNEARKQIAVLVDNTAPKINIISNSYQIEQGGAGAVVFKADDANLDKVYIETNKGKIFKATPYVKEGYYAALIAWDARDEEFRAFVIATDKAGNISKERIRYYFVNRKYRVSNINLTDKFLDGKIENLANQYAPKDNNLNRYEKFKFVNETLRNSNEKLIHEITSKVPEEKIDNFDLNLFLPLKNGMKVADFADHRYYSYNGQFVSDSYHMGLDLASVAQAPIISNNAGKVVFAAENGIYGLNLIVYHGFGVYSLYGHCSSKNVDLDEMINKQSIIGKTGTSGLALGDHLHFGVLVQGVETRPEQWQDKKWIENNIYNVLNDGKKIILGKNEGHHHHHH	not soluble
AQGQQGQVRLLCNTAALTEYLPELLASYLAENPGVSVDVQELPSLRIVQAITQGMADLGIVSTAAPSEHLQTRPFRDDPLVLVTPQAHPLASALAPSFVDSLAHGYVGLGAGSALGLYLEEQALHEGQRMQVRVRAEGFDGV	not soluble
MSLKRLNLYIFGENNILDILIKNGSVFSGNNNEPESNNIGIKKSKIDFIGKESPESKKVIDAKDYIVTPGFIDIHTHSDISFLVDPEADSKLTQGVTFEFLGNCGMSFCAPLNSASKQTLSDRLSKYNSDVKIDWNDFTDWLNKIEKNIPSINVAAQLGHGVLRSYVMGMKAVSATPEDIEAMKNIVRSSIDQGVLGFSTGLWYAPGSYSHTEEIVEITKVVAEHDLLYSSHIRSESDDASGLFPAHAEAIEIGRRTGAKIQISHVKSVGPQFWGRGKELLEGMYKAREEGIDVAGDQYPYEWSSTPTSGCMFPRWSLEGGREKTLERLKDKNIREAIKSETINYINRFHGSAGCVLAEFSNDKKLEGLNLSEISEEFSCSPEEAAMRLYEISEGSFVLHSMEEQDVDTIGMSDIIAVASDGNSLRNTGPLSNGKPHPRSYGTNTRFIEDMVVNKKKVSISNAIYRMTSLPASRIGLKNRGEIKKGYFADINIFKPEELREKATYVDPHQYSTGMKWVLVNGKIALKDGKKIEGRFGKVVRSKEGEGHHHHHH	soluble
RLVDESALEEFLTREIGPAETFDVARHEQGHSNETLFVTWGDRELVVRRPPPGQTAETAHDVLREYRVIDALQDTAVPVPPTVTACDDQTIIGSDFYVMARVEGTVIRDDEPARFGSDDARAAVGTELVDTLAAIHEVDPTAVGLSDLGRADGYAKRQVARWGKQLAWAFERTAESRTIPELERVGSWLQDECPDDHPKTLVHGDYKLDNVMFGPGDDPELAAVFDWEMATLGDPRADLGWLLSYWRD	not soluble
ADIVNLQGVTGGNTYSVPAVTMDLLSGKDVAVEEFPRKLLTFKEKLGEGQFGEVHLCEVEGMEKFKDKDFALDVSANQPVLVAVKMLRADANKNARNDFLKEIKIMSRLKDPNIIHLLAVCITDDPLCMITEYMENGDLNQFLSRHEPPNSSSSDVRTVSYTNLKFMATQIASGMKYLSSLNFVHRDLATRNCLVGKNYTIKIADFGMSRNLYSGDYYRIQGRAVLPIRWMSWESILLGKFTTASDVWAFGVTLWETFTFCQEQPYSQLSDEQVIENTGEFFRDQGRQTYLPQPAICPDSVYKLMLSCWRRDTKNRPSFQEIHLLLLQQGDE	not soluble
MSTGANRILDDLARLMTDAAGAAQGVRREVEAAFRAQTENWLNSLDVVKREEFEAVKEMAARARDENDALLARIEALEARLAATGPAAADITTGK	not soluble
MEEFVNPCKIKVIGVGGGGSNAVNRMYEDGIEGVELYAINTDVQHLSTLKVPNKIQIGEKVTRGLGAGAKPEVGEEAALEDIDKIKEILRDTDMVFISAGLGGGTGTGAAPVIAKTAKEMGILTVAVATLPFRFEGPRKMEKALKGLEKLKESSDAYIVIHNDKIKELSNRTLTIKDAFKEVDSVLSKAVRGITSIVVTPAVINVDFADVRTTLEEGGLSIIGMGEGRGDEKADIAVEKAVTSPLLEGNTIEGARRLLVTIWTSEDIPYDIVDEVMERIHSKVHPEAEIIFGAVLEPQEQDFIRVAIVATDFPEEKFQVGEKEVKFKVIKKLHHHHHH	soluble
KTHFVIQLKEDSQLMDEVVVVGFGTQKKINLTGAVTAVNIQETLGDRPITNVTAALQGVVPGLKIEGTTGTPGDNLSYNIRGTTSINGGGPLVLVNNVPMDINMIDPQDIESVSVLKDAASAAIYGARAAFGVILITTKQGKKDM	not soluble
